Test results reported in article PMC6196502 (Proceedings of the National Academy of Sciences of the …, 2018).
Changes are numbered by the printed parent chain. In names and notes the source's numbering stands.

B1: segmentally labeled mCherry-hnRNPA2-LC D290V (ligated construct, G280C) (domain or fragment, human, UniProt P22626-2 181-341, looked up)
chain: MQEVQSSRSGRGGNFGFGDSRGGGGNFGPGPGSNFRGGSDGYGSGRGFGDGYNGYGGGPGGGNFGGSPGYGGGRGGYGGGGPGYGNQGGGYGGGYDNYGCGNYGSGNYNVFGNYNQQPSNYGPMKSGNFGGSRNMGGPYGGGNYGPGGSGGSGGYGGRSRY
B2: GFP-hnRNPA2-LC D290V (domain or fragment, human, UniProt P22626-2 181-341, looked up)
chain: B1 chain with C100G

Key:
solid-state NMR = biological target: the molecule itself; assay: solid-state NMR
[1] = biological target: the molecule itself; assay: urea-driven polymer dissolution

Protein | binding result (solid-state NMR) | binding result [1]
B1 | binds | –
B2 | – | binds
